Source: patent US20150100046A1, “INTRAOCULAR DRUG DELIVERY DEVICE AND ASSOCIATED METHODS” (priority 2013, published 2015)

Assay: Ocular tissue drug concentration by ELISA after implantation of loaded intraocular device
Type: in vivo, New Zealand white rabbits
Conditions: intraocular device loaded with Avastin implanted in lens capsule after lens extraction, 1 week post implantation
Text: Three intraocular devices were implanted into eyes of New Zealand white rabbits under general anesthesia after lens extraction (phacoemulsification technique). Two of the devices were loaded with Avastin® (bevacizumab) and one was loaded with the contrast agent gadolinium-labeled albumin (Galbumin™) as a control. Proper intraocular device position was verified by MRI as well as clinical examination.
The rabbits were sacrificed and the eyes are removed and assayed after 1 week post implantation. Bevacizumab (Avastin®) was detected by ELISA in the retina and vitreous at concentrations of 24-48 mcg/mL, and was not present in the control rabbit eye.

With bevacizumab [Bevacizumab (Avastin®)] the “concentration detected by ELISA in the retina and vitreous” value was 24 to 48 µg/mL.
